Measurements taken from a protein production outcome set (Wang et al. 2014).

Assay: label from the status in PepcDB records

| Sequence | protein production |
| --- | --- |
| MWKKKIVLSFLFYLISALGISLTIQAGVGVSSFNAFNVTFATLTHLKVGTVTTAINFAFLGTCWLLDQQRKIQDYLIILVALIGFGFVINFFLYQLFGSLVFQNYLVKIVLFILGTIIAGIGTGQVVALGVLQFPIEKFCTLISERTRYSFQFYRYLVDIFCVSLALGLSISYHLPIFVREGTVISLFLLSWVISWSRKRGQQRILRIQIKKLESE | failed |
| KGSQVKLEVISDEKGAKPRTITLTREQIRLEDRAVKLTEKVINGDKIAILDIPSFYVGLTNDVKTQLQKVAKDNVSALVIDLRGNGGGALTEAIALSGLFIPSGPVVQVRDNNGRVRQDYDRDDVVYYKGPLVVIVNRFSASASEIFAAAMQDYGRALIVGEQTFGKGTVQQYRSLTRVYDQMLSPDWPSLGSVQYTIQKFYRINGGSTQLKGVTPDLLLPSFDNSEMGESNEDNALPW | failed |
| MAILLALIPIMMIFICLFLFKQTSLRSSLIAYVVSVGIVLLSPMFQLGISETVHATIKGSLICFIVGYVLFFGIFLFHLMNKMGYIDQVARFLEEVTHDRLLQMLLMCFGICPLIESVSGFGIGFMVAAPIFLSLGYKPFQAVLLSFIGLLASSWGAMATGTIIGSQLINMPLTTLGTNTALLSIPMFAYFVILSLHVVGGWQAVIEKWKEGIGFFLLFSLGIYLSNAYVSVELAGILSSIVTITFGFLIIKLKGKSEQNLMSEHAAATEREVSIIKIISPYIFLTVCILLSRLVPALHDVFRSYAVLDLKSFSYKLEMLYSPGFWLGMTCLFTIIFFRIPSNIIKQSLSQTIKQWIPFAITTTMFIAISELMGASGMHSLLAKTAGETFGTFFVFVAPFIGGIGGFLTGSNAGSNAMFIKLQMQTAQNVALPWQYVTTLQNTASSVATIACPSRITLGAYLCNIPYRENELLKKTTLMIFGAVLLIVVEVIFWYMLRN | failed |
| MVIFIMKKRYICILPYSLSYGGVFIDCKEVIANYWNFRSSTYKNGINGFDEEERAVWKQIFENSLASGKRLKVLDVGTGTGFLALLFAEMGHEVSGIDLSEGMLEKARHNADNMGLEISLFHGDAENLPFEDCSFDLVVNKYLLWTLQEPASAVREWKRVLKPGGMIFAIDGNWFDPRPDRYIKRMLYGLAERFAKKNQYNLIFKKSYGPIRNSLPLYEKISPKNISFLFSETGLMNTEISPLLEVQKFQRNRHSFSRRIFENNSIFLISGQKNLEHHHHHH | failed |
| MNVIGKVTVLPQLPAEIARLSELAYNLYWSWTPRAQALYRDLSPELWERFQHNPVRLLLEADQDRLNAAAQDPAYLGRYAQVMADFDAYMGKKDTWAARHAPQMKPVAYFSMEYAFHESLPIYSGGLGVLAGDHCKSASDLGLPFTAVGMLFSQGYFRQLFDKDGWQNEAYDELDLTTLPIQPAQSAAGEDIRVSVRIAGREVAVKVWTLQVGRVRVLLLDSNVPDNSEDDRKLTARLYGGNQELRVQQYVLLGVAGIRALRALDVPASVYHMNEGHAALMALERMREYVAAGQDFRTAAELAASSTLFTTHTPVAAGNDAFTYELMDKYIGEWPGLLHAGRDELYALARHDQQWDGHTVPAFSMTVFALSMSRAANGVSELHGEVSRGMWNFLYPGAEENEVPIGHVTNGAHNLTFTSQRMRDLLSTVLPEDWTERLEDETMWQAVEQLTEEQLSNVQREMKREMITFVRGRVREQLLRNGASAADVAATDNLLDEGTLTIGFARRFATYKRATLLLRDKPRLAAIVNNPERPVQFVFAGKAHPADNPGKAFIQEIYRTSQEPEFRGKIVILENYDMNVARHLVQGVDIWLNNPRRPLEASGTSGMKASFNGSPNFSVLDGWWREGYDGTNGWPIGEEREYADLNVQDDADAFDLYQRLEHEIAPRYYGHAQGNASWAHTVRDAIETVSPRFSMQRQVLDYVQQYYLPLGQRGTQLADHGGARARDLAAWKAWVRQQWPHTSISAQANLPATARPGEQVTVSAQVNPAGIRPEELRVEAVLKRGDEVQRYPLAPGEGGQYSAEIPLDDSGLYSVGVRMLPLIDGLSNDLEAGLIKWA | failed |
| MEKVVTLNHDLPLLHFPNSRKPFSIPSPILRISSFKRHKKRSCLASSSRLGFYTETKTVSESHGVIVDNSTIGRRLLGLAAAVSVAVSLSIFCDSPALAESLTIAFPVSRAREVIETMVEMFPLRSADAAYGKLKAMLSTLGDPFTRLITPKEYQSFRIGSDGNLQGVGLFINSEPRTGHLVSDQTHLETQISLVFGLFVHFLSMNPADRAGIHEGEELVEINGEKLDDVDSEAAAQKLRGRVGTFVTIKLKNVLFGTDSGIREVTVTAVSVRCVKLPRDYIKLSPISSAIIPHTTPDGRLAKTGYVKLTAFSQTAASDMENAVHEMENQDVQSYILDLRNNPLLAIPYQGGLVRAGLDVAQLWLDGDETLVYTIDREGVTSPINMINGHAVTHDPLVVLVNEGSASASEILAGALHDNGRAILVGNRTFGKGKIQSITELNDGSALFVTVAKYLSPSLHEIDQVGIAPDVQCTTGMIDSLTAEIVEKMNSSVPLLEADSCVMVAEHELEARRSNGTAS | failed |
| MLWTQVYDPFSNITLSAMVAMLPLAILFYMLAVRRAKGHVAAACGLAGAFAATVAVWGMPAGLAVNATLYGVAMGLFPIIWIVLTAVWLYNMTVESGEFEIIKSSLARLTDDRRLQALFIAFAFGAFLEGTAGFGTPVAITAAMLMGLGFSPVYAGGICLIANTAPVAFGALGIPVIVASQVSGLDTLTLSQYVGRQLPVFSLIVPLWMTVVMCGFKRTMEVMPAIVVASVCFSGTQFIFADWHGPTLPDVMAAIVTIVGLLVLLRFWKPARTWHFADEKPEAATGETRHSTGEVLRAWAPYAILAVFVFFWGLGSVKTFLNNIFIMSFEWPGLHAAIAKTAPIVKADAPYAAKFTFNLISAGGTAILFAGLLSVPVMPGYGYGRAFGCLARTCYQLRFPILTIVMILGLAQLMNYSGMSSTLGIAFTHTGALFPFFAPIMGWLGVFLTGSNTSSNALFGSMQHATASAVGVDPYLTVAANATGGVTGKMISPQSISVATASTHTVGQEGALFRFALKHSIAMTLVICVLVTLQAYVIPWMLPAR | failed |
| KHSSTQQRLSRMLHEDGFVMHYQLLQSVVEKDVISFEALLRYQDREGNLCPPTFISDFQLLNMMPTLDKLVIDKVLTDMQKMDLNEDRRVAINISVASIEEHGFAEHVIDRLKFFSIPPHWLEIEITEEAILSDNHNLLSTLEILKSHGIKIAMDDFGTGYASFPHLLKYPFDKIKLDRSLLLDASTTKGKQLYQLIAQMGDVANCEVVAEGVETEDEFKFVAECGVDKVQGFLIARP | failed |
| MGYGKILVALDRSELAKEVLQQAIALGQKESSQLMVFYCIPVDSQDLSIYPSFYGEAAIGFSQIIKEHLEEQQTEAREWLQSIVQQVQEDGVACEWDVKVGEPGRWIRDMAKNWDADLVVLGRRGLKGLAEVFLGSVSSYVIHHVQCSVLIVQH | failed |
| MATEKLPPLERYIRMLELLTAFPDGLALSELSAMIELPKASAHRLIKTLQELELAATSSPGSATYVTGPRLRKLAFMSADAQWVVAILRPFLRELTQEMGETAFVARLEGASVRTIAFEAPETPWRGFILPGYEMHPNAAASAKAILAFQDAATLKRALREPFERLTPQTNLSKERLLEEYAAIRQSGVATCIGEIDEGLAAVAVPIEVGGAAGLYSLGLTGPMNRVMALGVERAAERMMAYAARMASGLSAGLSAESARAAGLS | failed |
| MTLAPRHLRIEQRGRVLQVLLDNPPANFLTTAVMQELADLLEDLEQRQDIGAVILSGAADGVFLTHFDVDEIERAVAPITFSMPAWLTRLLLESESLLRHLPGARKLLRRTLLAGVADMNLFHEVTAHMRRMDKVFIAAINGLALGGGCELALACDLRLMAEDDQVERFLGQPEVLIGLIPGGGGTQMLARSLGVARALELCLEGQLLEPRQALALGLVNGLAPAEELLEAADALAQRLSRRSPQAVRLIKRSIYQAASRDWTEGMASEKAGFLSAASQGNTRRAMREYIERVRTITREERPFRRADFDDLTEGNAID | failed |
| MGHHHHHHSHGIVPGSVVLMAGEPGVGKSTLLLEVASRWASMKEGDGTRTALYVTAEESAGQVRLRAERTAAVKDTLYLAAESNLDVVFGHVNQVKPSLLIVDS | failed |
| MSASAHIAQPDTRQQSRSDTPQAVAALAGRVLLSAIFLLSGVSKLAAPAMMIGYIGSVGLPFPQLALALAVIVEIGGGLALVAGWRTRTVAALLALFSVVTALAFHNALGDQNQFIHFFKNLAMAGGLLQVVAFGAGRFSLDARRR | failed |
| MSVKVSVDDIDGITEVLNVYMNAAESGTGEEMSAAFHKDATIFGYVGDKLAFNGPIKDLYDWHNSNGPAKNVQSRITNIDIVGTVAHARVEAENWTNFKFSDLFLLLKLDGKWTIVNKVFHLHA | not failed |
| MSEKMRRIVEAAGGIVWRWKAGSDIANDPAIASSKSAQEQLDSIEVCIVHRPKYDDWSWPKGKLEQNETHRHAAVREIGEETGSPVKLGPYLCEVEYPLSEEGKKTRHSHDCTADTKHTLYWMAQPISADDAEHLLDAFGPVHRADVGEINDIVWVSVREARKILSHSTDKDTLAVFVDRVQEGAATAQNLLIVRHAKAESRKSWKGTDANRPITPKGAAMAFALNRELACFNPTRLATSPWLRCQETLQVLSWQTERPMEHINTLTEDAFAEHPAVSWLAFREQITQTLNSRETTAICMHRPVIGGMYDHLRGLCARKQLAKQLIAKSPYMPTGTAMSLFIIDTPQGPSIIDIQKVSPIVY | failed |
| MSTRSMSAPANATVADVAAGDAIRSLDPSIRAVWAIKMAAFSMFLFLPALFYDLTHLFSPDSWLPFGVLSGTVLVGGVLYCVAWPRLRYRAWGFVLRPEELYMEHGVLQHVRTIVPLRRIQHVDVSQDLIEREFALGRLVVHTAGSRSSDVVIPGLPLSEAETIRDKIKRFILEDPLTEEPV | failed |
| MRIKLIIVEGKTDESFFKVLLEKLYGFREAKKLTPEFPIGKWGFRIGEHPLVLEKDNIALVIIHAEGKQRIPKVLKSVLDSVKLGLLNVEEVYVVRDVDEGNDVFEWVLSFLREREVRVDNGAIVTEGVKIYPYGMGNLTLNEPFVKEKKELELSLAYLAKLDGILEKYRGSMRALSQDKGDKLTPKDVMHILSIANDYTGDCLSGLYEKYIGIMIHRNRELLIRFLSEVNLLPLLERMVG | not failed |
| MAIQVKASLRKNPQDKKAAGKYYAQVVLAPEMTQRQIIDQIADRCTVTGSDVKAVLDALMTVIKRNLANGSPIRLGDLGSFRPSVSGIGSENVDKFTASNVKKARVIYVPSAEIKEAVAMYAFSKVGATAEGGNTEKPGGGDIDNPGGGDEEAPDPTVLEHHHHHH | not failed |
| MTRLNELWELYFQTLDKSTSWTFTKESFYNRYLKEPLGKKKLDSIQEHHIMAIIRHLQAEGMATRTVNTTLEILRPLFDFAIKNKALRDNPTRFIVLKKDNLEHHHHHH | failed |
| ADELVMSNLHSKENYDKYSEPRGYPKGERSLNFEELKDWGPKNVIKMSTPAVNKMPHSFANLPLRFGRNVQEERSAGATANLPLRSGRNMEVSLVRRVPNLPQRFGRTTTAKSVCRMLSDLCQGSMHSPCANDLFYSMTCQHQEIQNPDQKQSRRLLFKKIDDAELKQEK | failed |
| MKKLIIAALGLTLILSGCAPKLDSNDKVVQKDDKKAETGIMTKNQISSNYYKTVLPYKASKSRGLVVSNIYSRYDINELESGLMRVSQNKYSPDNYLFQEGQYLDKETLEKWLDRKSEKNPNGLNPESNGDGKDRKPIYLAHILEQDYLKQTDKDTVALGGISIALAMNSVDYYQKEQYGDTFEQEISDSDLLAQGKEMSGTVLNRIRQTKGLENVPVTIAIYKQGPRDAVAPGNFLTYATANGDSLSSWKDVEEKNYVLPSTESAKDHKTDNDNFLNFKKAIEDYYPNFTGVVGRARYEDGQLAELSIDIPLQFYGQAEIIGFTQYVTDLVGQHIPKTADLQVNISTSDGPAALITRKANEDAATAHIYD | failed |
